Results published in US20210030857A1 (NGM BIOPHARMACEUTICALS, published 2021).
“And” between values parts separate entries of the source, which are not always exact repeats. Identical values can stand only once.

Experiments:
[1] = target: T1, human beta klotho / human FGFR1c receptor complex on cells (human, UniProt Q86Z14 1-1044; P11362 22-822); test: cell-based or functional assay
[2] = target: T2, mouse-human KLB chimeric protein (mouse KLB (M1-F506)-human KLB (S509-S1044)) on cells (mouse/human chimera, UniProt Q86Z14 1-1044 (human entry)); test: FACS on transfected Expi293 cells
T2 construct: also called Mouse-Human chimeric KLB; chMoHu
Description: (§1) Studies were performed in order to localize the binding site on human KLB of anti-beta klotho antibodies in the 5H23 epitope bin, including 5H23 as described in Example 3, with sequences shown in Tables 1-10 and FIGS. 1-3, and human anti-beta klotho antibodies in the 5H23 epitope bin, such as humanized 5H23 antibodies (e.g., VH SEQ ID NO: 271 and VL SEQ ID NO: 276). For example, FACS-based binding assays for domain mapping were performed on Expi293 cells (Life Technologies, A14635) that were transiently transfected with plasmids encoding variants of KLB: human, mouse, cynomolgus, a chimeric version in which the KL1 domain sequence of mouse KLB (M1-F506) replaces the KL1 domain of human KLB (M1-F508) to create mouse-human KLB (SEQ ID NO: 376), and a second chimera in which the human KL1 sequence (M1-F508) replaces the KL1 domain of mouse KLB (M1-F506) to create human-mouse KLB (SEQ ID NO: 374). Additionally, the expression vector pYD7 harboring no KLB sequence was transfected as a negative control.
(§2) In some studies, binding of a purified sample of a humanized 5H23 antibody (e.g., VH SEQ ID NO: 271 and VL SEQ ID NO: 276) to KLB variants was determined by FACS analysis. […] After washing with PBS/1% BSA/0.1% azide, transfected cells were then co-incubated with labeled anti-human Fc (Jackson lmmunoresearch) for 30 minutes at 4° C. After washing with PBS/1% BSA/0.1% azide, cells were acquired on flow cytometer (FACS Calibur) and analyzed by cytometric software (FlowJo). To display the resulting data, graphs plotting the number of cells as a function of fluorescence intensity were generated, and the median fluorescence intensity (MFI) was determined for each sample as shown in Table 30.

[3] = target: T3, mouse beta klotho expressed on cells (mouse (Mus musculus), UniProt Q99N32 1-1043); test: FACS on transfected Expi293 cells, antibody 1 µg/ml, labelled anti-human Fc
T3 construct: also called Mouse KLB
T3 sequence: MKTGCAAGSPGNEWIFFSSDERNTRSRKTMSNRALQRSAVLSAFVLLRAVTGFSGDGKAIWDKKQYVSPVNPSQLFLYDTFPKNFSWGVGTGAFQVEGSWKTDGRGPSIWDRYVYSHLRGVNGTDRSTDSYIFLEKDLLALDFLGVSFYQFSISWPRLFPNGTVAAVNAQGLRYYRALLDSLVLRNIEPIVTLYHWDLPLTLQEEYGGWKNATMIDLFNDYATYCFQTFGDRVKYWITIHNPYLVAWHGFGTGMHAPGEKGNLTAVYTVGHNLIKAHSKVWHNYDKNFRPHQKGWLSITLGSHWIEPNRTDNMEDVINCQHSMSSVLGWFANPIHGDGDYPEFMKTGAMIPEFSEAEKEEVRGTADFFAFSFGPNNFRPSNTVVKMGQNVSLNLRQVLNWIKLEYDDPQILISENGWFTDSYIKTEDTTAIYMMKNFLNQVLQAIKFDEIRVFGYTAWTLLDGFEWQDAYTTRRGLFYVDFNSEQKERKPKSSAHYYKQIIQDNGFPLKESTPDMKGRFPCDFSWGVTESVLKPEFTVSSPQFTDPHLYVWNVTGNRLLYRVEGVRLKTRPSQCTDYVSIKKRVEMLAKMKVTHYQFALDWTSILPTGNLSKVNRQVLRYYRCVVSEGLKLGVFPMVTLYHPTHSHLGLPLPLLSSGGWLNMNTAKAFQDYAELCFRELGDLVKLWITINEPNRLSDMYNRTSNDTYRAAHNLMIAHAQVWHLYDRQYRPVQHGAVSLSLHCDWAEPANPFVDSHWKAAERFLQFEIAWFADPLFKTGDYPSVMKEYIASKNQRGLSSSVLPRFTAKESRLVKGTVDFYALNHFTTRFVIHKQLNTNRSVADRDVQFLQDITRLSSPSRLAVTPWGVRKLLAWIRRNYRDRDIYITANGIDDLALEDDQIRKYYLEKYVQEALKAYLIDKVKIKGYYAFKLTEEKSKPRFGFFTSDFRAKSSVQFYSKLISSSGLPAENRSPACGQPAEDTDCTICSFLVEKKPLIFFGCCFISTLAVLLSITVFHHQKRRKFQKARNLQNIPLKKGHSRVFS
Description: as §1, §2

[4] = target: T2, mouse-human KLB chimeric protein (mouse …); test: as above
Description: as §1, §2

[5] = target: cynomolgus beta klotho / human FGFR1c receptor complex on cells (cynomolgus monkey (Macaca …)); test: cell-based or functional assay
cynomolgus beta klotho / human FGFR1c receptor complex on cells (cynomolgus monkey (Macaca …)), sequence (chain, as listed by the source limits assumed, chain 1 of 2): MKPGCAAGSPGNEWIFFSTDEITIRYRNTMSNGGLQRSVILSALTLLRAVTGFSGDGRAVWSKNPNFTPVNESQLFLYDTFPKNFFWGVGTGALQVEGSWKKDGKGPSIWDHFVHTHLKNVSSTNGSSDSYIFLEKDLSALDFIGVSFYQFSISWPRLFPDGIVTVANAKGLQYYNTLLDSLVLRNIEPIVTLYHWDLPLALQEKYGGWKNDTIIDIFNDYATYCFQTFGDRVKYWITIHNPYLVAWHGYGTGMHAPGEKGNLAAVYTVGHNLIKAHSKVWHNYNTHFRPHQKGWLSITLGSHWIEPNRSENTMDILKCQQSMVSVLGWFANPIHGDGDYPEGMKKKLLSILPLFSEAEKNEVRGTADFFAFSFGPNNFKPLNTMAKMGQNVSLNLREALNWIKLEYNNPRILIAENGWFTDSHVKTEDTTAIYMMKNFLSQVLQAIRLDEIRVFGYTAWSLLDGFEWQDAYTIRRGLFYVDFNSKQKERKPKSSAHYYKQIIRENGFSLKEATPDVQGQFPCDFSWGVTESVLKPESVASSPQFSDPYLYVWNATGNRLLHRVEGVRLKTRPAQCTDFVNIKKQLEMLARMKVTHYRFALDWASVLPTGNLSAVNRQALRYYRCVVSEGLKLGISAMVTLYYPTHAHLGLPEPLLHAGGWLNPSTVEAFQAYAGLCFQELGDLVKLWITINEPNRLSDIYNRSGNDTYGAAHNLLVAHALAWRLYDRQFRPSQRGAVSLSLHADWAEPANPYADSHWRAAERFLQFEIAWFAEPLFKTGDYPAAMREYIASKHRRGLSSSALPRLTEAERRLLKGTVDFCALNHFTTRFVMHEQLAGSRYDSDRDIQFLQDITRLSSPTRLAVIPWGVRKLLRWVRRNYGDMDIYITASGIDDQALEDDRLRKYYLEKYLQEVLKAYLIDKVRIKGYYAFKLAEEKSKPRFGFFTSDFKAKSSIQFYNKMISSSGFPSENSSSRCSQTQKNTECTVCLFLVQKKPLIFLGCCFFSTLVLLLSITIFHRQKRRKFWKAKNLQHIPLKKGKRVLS
cynomolgus beta klotho / human FGFR1c receptor complex on cells (cynomolgus monkey (Macaca …)), sequence (chain, as listed by the source limits assumed, chain 2 of 2): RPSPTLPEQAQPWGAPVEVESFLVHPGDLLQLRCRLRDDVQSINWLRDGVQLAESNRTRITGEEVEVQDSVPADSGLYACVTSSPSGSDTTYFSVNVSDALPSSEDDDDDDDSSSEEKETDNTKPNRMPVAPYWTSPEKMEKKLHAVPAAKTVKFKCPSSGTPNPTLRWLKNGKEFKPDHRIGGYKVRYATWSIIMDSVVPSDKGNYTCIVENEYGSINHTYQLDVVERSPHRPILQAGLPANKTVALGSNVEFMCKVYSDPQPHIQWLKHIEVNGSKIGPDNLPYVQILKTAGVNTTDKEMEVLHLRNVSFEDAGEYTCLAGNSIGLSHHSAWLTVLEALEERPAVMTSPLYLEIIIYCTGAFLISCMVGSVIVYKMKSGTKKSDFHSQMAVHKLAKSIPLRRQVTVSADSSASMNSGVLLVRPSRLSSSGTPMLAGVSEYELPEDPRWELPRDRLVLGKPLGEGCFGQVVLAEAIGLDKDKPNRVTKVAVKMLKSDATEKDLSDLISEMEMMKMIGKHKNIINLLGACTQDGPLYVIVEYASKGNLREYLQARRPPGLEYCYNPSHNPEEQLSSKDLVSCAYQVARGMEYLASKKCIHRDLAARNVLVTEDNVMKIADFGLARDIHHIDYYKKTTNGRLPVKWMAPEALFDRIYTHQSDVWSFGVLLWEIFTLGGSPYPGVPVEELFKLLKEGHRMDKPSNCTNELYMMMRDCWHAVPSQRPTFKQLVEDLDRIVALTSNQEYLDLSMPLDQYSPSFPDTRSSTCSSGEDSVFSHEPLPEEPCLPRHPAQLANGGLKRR

[6] = target: T1, human beta klotho / human FGFR1c …; test: cell-based or functional assay; remark: listed apart in the source

T1 sequence (Q86Z14 whole entry, chain 1 of 2): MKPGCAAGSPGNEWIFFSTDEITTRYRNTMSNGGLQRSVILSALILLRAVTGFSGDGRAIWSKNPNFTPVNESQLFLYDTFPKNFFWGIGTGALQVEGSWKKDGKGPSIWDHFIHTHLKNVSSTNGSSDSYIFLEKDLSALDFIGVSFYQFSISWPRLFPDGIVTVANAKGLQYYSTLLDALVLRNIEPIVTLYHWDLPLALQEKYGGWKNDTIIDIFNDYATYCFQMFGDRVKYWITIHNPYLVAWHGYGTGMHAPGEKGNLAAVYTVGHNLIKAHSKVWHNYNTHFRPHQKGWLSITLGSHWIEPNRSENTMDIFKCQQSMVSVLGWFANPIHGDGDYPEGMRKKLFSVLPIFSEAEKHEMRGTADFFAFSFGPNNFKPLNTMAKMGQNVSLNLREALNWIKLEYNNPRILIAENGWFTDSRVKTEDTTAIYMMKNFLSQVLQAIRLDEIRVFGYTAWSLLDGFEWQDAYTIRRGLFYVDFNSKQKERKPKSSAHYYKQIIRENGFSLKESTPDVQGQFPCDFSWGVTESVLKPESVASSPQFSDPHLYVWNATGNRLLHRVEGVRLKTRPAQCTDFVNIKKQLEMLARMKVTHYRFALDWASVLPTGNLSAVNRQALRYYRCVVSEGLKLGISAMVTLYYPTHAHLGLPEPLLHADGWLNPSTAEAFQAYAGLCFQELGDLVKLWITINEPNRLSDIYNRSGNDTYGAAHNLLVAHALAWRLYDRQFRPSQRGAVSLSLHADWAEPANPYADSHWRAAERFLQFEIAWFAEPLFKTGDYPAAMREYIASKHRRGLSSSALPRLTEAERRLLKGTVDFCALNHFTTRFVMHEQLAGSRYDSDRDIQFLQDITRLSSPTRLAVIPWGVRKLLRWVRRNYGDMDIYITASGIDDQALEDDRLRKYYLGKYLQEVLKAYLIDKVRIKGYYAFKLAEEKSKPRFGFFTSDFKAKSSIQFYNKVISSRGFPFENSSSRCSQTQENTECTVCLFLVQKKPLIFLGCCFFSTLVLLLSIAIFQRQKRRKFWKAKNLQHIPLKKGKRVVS
T1 sequence (P11362 22-822 limits assumed, chain 2 of 2): as the sequence (chain, as listed by the source limits assumed, chain 2 of 2) above

B1: Control mAb comprising SEQ ID NO: 358 and SEQ ID NO: 360 (antibody, human IgG2, lambda, V domains shown)
VH: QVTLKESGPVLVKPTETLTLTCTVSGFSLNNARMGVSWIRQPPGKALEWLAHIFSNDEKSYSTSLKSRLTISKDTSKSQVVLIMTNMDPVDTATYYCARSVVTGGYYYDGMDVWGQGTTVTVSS
VL: SYVLTQPPSVSVAPGQTARITCGGNNIGSESVHWYQQKPGQAPVLVVYDDSDRPSGIPERFSGSNSGNTATLTISRVEAGDEADYYCQVWDGNSDHVVFGGGTKLTVLG
notes: also called Control antibody
With B1 the EC50-adipocyte [1] was 3400 pM, the EC50 reporter assay [1] was 200 pM and 540 pM and the binding result [2] was “no binding (tested: 1 µg/ml)”. The “Mean Fluorescence intensity” value [3] was 10.6 MFI, the “Mean Fluorescence intensity” value [4] was 5.6 MFI and the “HEK293 cynoKLB/R1c reporter assay EC50, Experiment - A” value [5] was 108 pM and 178 pM. For the same binder, the “HEK293 cynoKLB/R1c reporter assay EC50, Experiment - B” value [5] was 227 pM, the “HEK293 huKLB/R1c reporter assay EC50, Experiment - A” value [6] was 45.3 pM and the “HEK293 huKLB/R1c reporter assay EC50, Experiment - B” value [6] was 27.9 pM.
